The text below walks through data of publication PMC8539644.

This test addresses GerD–mScarlet-I (Bacillus cereus ATCC 14579). Briefly: FRET or BRET; sensitized emission (filter) FRET by wide-field fluorescence microscopy in single dormant B. cereus spores; donor SGFP2, acceptor mScarlet-I; normalized FRET (NFRET) corrected for bleed-through and cross-excitation.

Take GerRB–SGFP2 (natural protein): the FRET efficiency was determined as 6%.

In the case of GerR(A-C-B)–SGFP2 (complex), the FRET efficiency is 6%.
